T1: Aurora A_(D274N) kinase domain (human, UniProt O14965 122-403, D274N)
T1 construct: Aurora A kinase, human, kinase domain residues 122-403, kinase dead D274N; theoretical mass 33.8 kDa; Cloned into pHAT5 in frame with a C-terminal 6xHis-tag; also called kinase dead human Aurora A D274N mutant; source: E. coli BL21(DE3), purified (HisTrap HP, Superdex 75 SEC); not shown: His6, C-terminal, kept
T1 sequence (looked up): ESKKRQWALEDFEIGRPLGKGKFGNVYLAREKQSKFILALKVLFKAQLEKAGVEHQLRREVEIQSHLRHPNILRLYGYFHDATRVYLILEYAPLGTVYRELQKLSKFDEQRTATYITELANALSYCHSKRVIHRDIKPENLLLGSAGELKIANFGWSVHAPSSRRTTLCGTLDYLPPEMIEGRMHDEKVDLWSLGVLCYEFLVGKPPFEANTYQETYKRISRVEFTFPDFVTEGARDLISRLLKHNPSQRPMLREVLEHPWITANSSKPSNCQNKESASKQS

B1: linear TPX2_((7–43)) peptide (peptide)
peptide: LSYSYDAPSDFINFSSLDDEGDTQNIDSWFEEKANLENLKGGGCQM
notes: residue before the TPX2 stretch in the printed peptide; TPX2, human, residues 7-43; C-terminal extension of the printed peptide with the cysteine handle; Used free in ITC and immobilised through the cysteine on CM5 in SPR; also called TPX2 peptide; TPX-2 peptide; source: E. coli BL21(DE3), KSI fusion (pET31b), inclusion bodies, Ni-NTA, CNBr cleavage, reverse-phase HPLC
B2: Alexa Fluor 488-TPX2_((7–43)) peptide (peptide)
peptide: LSYSYDAPSDFINFSSLDDEGDTQNIDSWFEEKANLENLKGGGC(Alexa Fluor 488‑maleimide)QM
notes: residue before the TPX2 stretch in the printed peptide; TPX2, human, residues 7-43; C-terminal extension of the printed peptide with the cysteine that is labelled; As m10, labelled; the methods speak of 'free N-terminal cysteines' but the only cysteine of the printed peptide is near its C-terminus; also called Alexa Fluor 488-labeled TPX2 peptide; labeled wild-type TPX2 peptide; source: E. coli …
B3: Aurora A wild-type kinase domain (untagged) (domain or fragment)
chain: FEIGRPLGKGKFGNVYLAREKQSKFILALKVLFKAQLEKAGVEHQLRREVEIQSHLRHPNILRLYGYFHDATRVYLILEYAPLGTVYRELQKLSKFDEQRTATYITELANALSYCHSKRVIHRDIKPENLLLGSAGELKIADFGWSVHAPSSRRTTLCGTLDYLPPEMIEGRMHDEKVDLWSLGVLCYEFLVGKPPFEANTYQETYKRISRVEFTFPDFVTEGARDLISRLLKHNPSQRPMLREVLEHPWI

What all share (settings): both partners purified
Experiment [1] concerns the target T1, Aurora A_(D274N) kinase domain. The experiment can be described thus: ITC; itc200, 25°C, 10 mM HEPES pH 7.4, 500 mM NaCl, 0.05% P20; 50 μM titrant into 5 μM Aurora A D274N, 100 μM CK2β peptide or RAD-CK2β into 10 μM CK2α; single-site model.
For experiment [2] the target is unchanged. The experiment can be described thus: SPR; Biacore T100, CM5, peptides or cRAD display proteins immobilised through their cysteine (240-400 RU), kinase as analyte 2.5 nM-2.5 μM, 25°C, 10 mM HEPES pH 7.4, 500 mM NaCl, 0.05% P20; 1:1 steady-state affinity model; CK2α data analysed at 200 s post-injection. In general terms: Surface plasmon resonance follows binding to a sensor surface in real time, without labels.

Experiment [3] shares this target. The experiment can be described thus: fluorescence polarisation; fluorescence anisotropy, direct titration of kinase (CK2α 2 nM-2 μM; Aurora A D274N 2 nM-1.5 μM) into labelled peptide or display protein; 10 mM HEPES pH 7.4, 500 mM NaCl, 1 mM DTT, 0.05% P20; room temperature; 1:1 model.
The target of experiment [4] is B2. The experiment can be described thus: fluorescence polarisation; fluorescence anisotropy, direct titration of Aurora A wild type into 10 nM Alexa Fluor 488-TPX2 peptide, 25°C, HEPES pH 7.4, 0.1 M Mg(CH3COO)2, 100 mM NaCl, 1 mM ATP, 1 mM DTT, 0.01% P20; quadratic single-site equation. (In general: In fluorescence polarisation assays a small probe gives low polarisation when free and higher when bound to something large.)

Ends that are not written are not given here.

These results are taken from article PMC5897841, “Development of a multipurpose scaffold for the display of peptide loops” (Protein Engineering, Design and Selection, 2017).

The Kd is the concentration at which binding is half-saturated. Consider B1, for which the values for the Kd in experiment [1] and in experiment [2] were 115 nM and 72 nM, respectively.

In turn, B2 came in with a Kd in experiment [3] of 74 nM. For the molecule B3, in experiment [4], the equilibrium dissociation constant (Kd) was 2.1 nM.
